Measured values taken from patent US20160223529.

Protein	HCV protease activity (quenched fluorescent HCV substrate) (SH3^pep-EGFP-PDZ^pep)	TVMV protease activity (degradation of fluorogenic TVMV substrate peptide) (Calmodulin)
TVMV-PDZ^dom with C-terminal HCV-inducible AI-domain (protein) SGGSGGSMEIRVRVEKDPELGFSISGGVGGRGNPFRPDDDGIFVTRVQPEGPASKLLQPGDKIIQANGYSFINIEHGQAVSLLKTFQNTVELIIVREVSSGGRGGSGGSGGSGGSGGSGGSSKALLKGVRDFNPISACVCLLENSSDGHSERLFGIGFGPYIIANQHLFRRNNGELTIKTMHGEFKVKNSTQLQMKPVEGRDIIVIKMAKDFPPFPQKLKFRQPTIKDRVCMVSTNFQQKSVSSLVSESSHIVHKEDTSFWQHWITTKDGQCGSPLVSIIDGNILGIHSLTHTTNGSNYFVEFPEKFVATYLDAADGWCKNWKFNADKISWGSFILWEDAPESGGDEMEECASHLGSGREYVRFAPGSTHHHHHH	resulting in reciprocal cleavage of the TVMV and HCV protease cleavage sites, thereby more fully activating both proteases	–
HCV-SH3^dom with C-terminal TVMV-inducible AI-domain (protein) SMSTSGSGGAEYVRALFDFNGNDEEDLPFKKGDILRIRDKPEEQWWNAEDSEGKRGMIPVPYVEKYRPASASVSALIGGRGGSGGSGGSGGSGGSGGSAKGSVVIVGRINLSGDTAYSQQTRGAAGIAATSATGRDKNQVDGEVQVLSTATQSFLATCVNGVCWTVYHGAGSKTLAGPKGPITQMYTNVDQDLVGWPAPPGARSMTPCTCGSSDLYLVTRHADVIPVRRRGDSRGSLLSPRPVSYLKGSSGGPLLCPSGHVVGIFRAAVCTRGVAKAVDFIPVESMETTMRGGGGSGGETVRFQSGGSGGDELILCPLDLGGSGGTGHHHHHH	resulting in reciprocal cleavage of the TVMV and HCV protease cleavage sites, thereby more fully activating both proteases	–
TVMV-AI-CalmodulinBinder (protein) SKALLKGVRDFNPISACVCLLENSSDGHSERLFGIGFGPYIIANQHLFRRNNGELTIKTMHGEFKVKNSTQLQMKPVEGRDIIVIKMAKDFPPFPQKLKFRQPTIKDRVCMVSTNFQQKSVSSLVSESSHIVHKEDTSFWQHWITTKDGQCGSPLVSIIDGNILGIHSLTHTTNGSNYFVEFPEKFVATYLDAADGWCKNWKFNADKISWGSFILWEDAPEDFMSGLVPRGVGREYVRFAPRWKKNFIAVSAANRFKKISSSGAL	–	releasing inhibition of the TVMV protease by the autoinhibitor peptide
